We go through three molecules from patent US20190016816A1 (APTEVO RESEARCH AND DEVELOPMENT, published 2019).

For assay [1], the target named is T1, cynomolgus 5T4 on cells (cynomolgus macaque, UniProt Q4R8Y9 35-420).
T1 construct: whole, on cells; also called CHO-K1/cynomolgus 5T4 transfectants
T1 sequence (looked up): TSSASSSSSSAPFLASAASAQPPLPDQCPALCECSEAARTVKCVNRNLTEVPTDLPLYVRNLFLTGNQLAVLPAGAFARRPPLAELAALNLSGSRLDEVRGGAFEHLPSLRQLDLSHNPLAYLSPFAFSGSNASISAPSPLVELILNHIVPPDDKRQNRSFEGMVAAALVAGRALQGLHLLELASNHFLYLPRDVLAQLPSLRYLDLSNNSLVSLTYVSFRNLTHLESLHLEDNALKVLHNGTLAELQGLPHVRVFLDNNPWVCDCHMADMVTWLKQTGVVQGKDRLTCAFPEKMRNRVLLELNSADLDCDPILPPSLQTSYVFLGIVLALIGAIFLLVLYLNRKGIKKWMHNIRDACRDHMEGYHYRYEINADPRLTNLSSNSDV
Briefly: flow cytometry, CHO-K1 cells expressing cynomolgus 5T4, labelled anti-human IgG secondary, MFI (median). The procedure:
Binding studies were performed by standard flow cytometry-based staining procedures two cell lines expressing 5T4:CHO-K1 cells (obtained from Alligator) transduced with human or cynomolgus macaque 5T4 and SKOV-3 human ovarian adenocarcinoma cells which express (human) 5T4. All labeling and washes were performed in U-bottom 96-well plates in saline buffer with 0.1% BSA and 2 mM EDTA. Cell were plated at approximately 100,000 cells per well and incubated with a range of 100 nM to 0.05 nM concentrations of test molecules in […], for 30 minutes on ice. Cells were washed three times then incubated for another 30 min on ice with fluorescently-labeled secondary polyclonal antibody, F(ab′)² goat anti-human IgG (Jackson ImmunoResearch Laboratories). The cells were then washed twice and the samples acquired in a BD LSRII or a Symphony A3 flow cytometer. The sample files were analyzed using FlowJo software; the mean fluorescence intensity (MFI-mean) or median fluorescence intensity (MFI-median) of the live population of cells in each well was calculated after gating on live cells (forward vs side scatter). Nonlinear regression analysis to determine EC₅₀ values was performed in GraphPad Prism 6® graphing and statistics software.
On the technique in general: In flow cytometry, cells or beads pass a laser one at a time.

The target of assay [2] is T2, human 5T4 on cells (human, UniProt Q13641 32-420).
T2 construct: also called TPBG; hu5T4
T2 sequence: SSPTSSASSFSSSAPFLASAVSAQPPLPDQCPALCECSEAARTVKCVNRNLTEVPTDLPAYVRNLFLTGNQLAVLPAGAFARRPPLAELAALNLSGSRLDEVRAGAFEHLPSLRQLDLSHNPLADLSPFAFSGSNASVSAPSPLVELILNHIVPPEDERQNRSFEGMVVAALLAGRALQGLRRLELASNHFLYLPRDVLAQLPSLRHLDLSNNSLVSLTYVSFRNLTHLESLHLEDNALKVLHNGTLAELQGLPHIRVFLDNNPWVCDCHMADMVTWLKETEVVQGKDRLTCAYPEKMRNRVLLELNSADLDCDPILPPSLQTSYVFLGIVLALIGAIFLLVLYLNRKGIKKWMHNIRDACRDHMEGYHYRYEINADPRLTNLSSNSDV
Briefly: flow cytometry, CHO/5T4 cells, PE goat anti-human Fc. The procedure: A 3-fold titration of ALG.APV-210 construct (ranging from 100 nM to 0.14 nM) was incubated with the human 5T4-expressing cell lines for 40 minutes in FACS buffer at 4° C., washed 3 times, and detected with PE-labeled, goat-anti-human Fc secondary antibody (Jackson ImmunoResearch). Binding of ALG.APV-210 was detected by flow cytometry. All samples were run in duplicates. Nonlinear regression analysis to determine EC₅₀ values was performed in GraphPad Prism 6® graphing and statistics software.

Assay [3] concerns the target T2, human 5T4 on cells. Briefly: flow cytometry, CHO-hu5T4 cells, streptavidin-PE, normalized MFI of 2 pooled experiments. The procedure: Prior to the FACS staining, all cell lines were characterized for their 5T4 expression levels using a receptor density kit (Quantum Simply Cellular, anti-human IgG, Bangs Laboratories, Inc). Adherent cell lines were cultured according to their supplier's instructions and were harvested from their cell culture flasks using Trypsin/EDTA, counted in R10 medium in a Burker chamber, and diluted in FACS buffer (PBS+0.5% BSA, 0.05% NaN₃) to a concentration of 4×10⁶ cells/mL. 50 μL (0.20×10⁶) of cell solution was added to a 96-well FACS staining plate (Falcon #351190). Cells were incubated for 20 min in 4° C. with 50 μL of the biotinylated ALG.APV-210 (2× final concentration). The antibodies were added in a serial dilution starting at 20 μg/mL titrating down in a 12 step ½ dilution down to 0.010 μg/mL. Following 2× washing with FACS buffer, cells were incubated for 30 min in 4° C. with 100 μL of a secondary antibody (streptavidin-PE, BD #554061, diluted 1/500). […] Cells were analysed for ALG.APV-210 binding using flow cytometry (FACSVerse) by gating on single cells. MFI values (secondary antibody only subtracted) from 1 out of 2 independent experiments, as well as normalized data and EC₅₀-values of pooled data from 2 experiments were determined and plotted using GraphPad Prism 7, non-linear regression log (agonist) vs. normalized response—variable slope.

As a reminder, the EC50 is the concentration needed to bring the measured effect to its halfway point. Low values mean an effect from little substance, high ones a need for much substance.

B1: ALG.APV-187 (bispecific antibody)
chain: EVQLLESGGGLVQPGGSLRLSCAASGFTFSHGSMYWVRQAPGKGLEWVSSISSGSGSTYYADSVKGRFTISHDNSKNTLYLQMNSLRAEDTAVYYCARSSYYGSYYSIDYWGQGTLVTVSSGGGGSGGGGSGGGGSGGGGSDIQMTQSPSSLSASVGDRVTITCRASQSISSYLNWYQQKPGKAPKLLIYAASSLQSGVPSRFSGSGSGTDFTLTISSLQPEDFATYYCQQYYDNLPTFGQGTKLEIKSSEPKSSDKTHTCPPCPAPEAAGAPSVFLFPPKPKDTLMISRTPEVTCVVVDVSHEDPEVKFNWYVDGVEVHNAKTKPREEQYNSTYRVVSVLTVLHQDWLNGKEYKCAVSNKALPAPIEKTISKAKGQPREPQVYTLPPSRDELTKNQVSLTCLVKGFYPSDIAVEWESNGQPENNYKTTPPVLDSDGSFFLYSKLTVDKSRWQQGNVFSCSVMHEALHNHYTQKSLSLSPGSGGGGSGGGGSGGGGSPSEVQLLESGGGLVQPGGSLRLSCAASGFTFSSYAMSWVRQAPGKCLEWVSAISGSGGSTYYADSVKGRFTISRDNSKNTLYLQMNSLRAEDTAVYYCARYYGGYYSAWMDYWGQGTLVTVSSGGGGSGGGGSGGGGSGGGGSDIQMTQSPSSLSASVGDRVTITCRASQSISSFLNWYQQKPGKAPKLLIYAASSLQSGVPSRFSGSGSGTDFTLTISSLQPEDSATYYCQQTYGYLHTFGCGTKLEIKR
notes: Optimized ADAPTIR scFv-Fc-scFv homodimer with stabilizing disulfide in the 1210 scFv
Regarding B1, in assay [1], the concentration for a half-maximal effect (EC50) came to 21 nM and the “Maximum MFI” value is 25400.

B2: ALG.APV-210 (bispecific antibody)
chain: EVQLLESGGGLVQPGGSLRLSCAASGFTFSHGSMYWVRQAPGKGLEWVSSISSGSGSTYYADSVKGRFTISHDNSKNTLYLQMNSLRAEDTAVYYCARSSYYGSYYSIDYWGQGTLVTVSSGGGGSGGGGSGGGGSGGGGSDIQMTQSPSSLSASVGDRVTITCRASQSISSYLNWYQQKPGKAPKLLIYAASSLQSGVPSRFSGSGSGTDFTLTISSLQPEDFATYYCQQYYDNLPTFGQGTKLEIKEPKSSDKTHTCPPCPAPEAAGAPSVFLFPPKPKDTLMISRTPEVTCVVVDVSHEDPEVKFNWYVDGVEVHNAKTKPREEQYNSTYRVVSVLTVLHQDWLNGKEYKCAVSNKALPAPIEKTISKAKGQPREPQVYTLPPSRDELTKNQVSLTCLVKGFYPSDIAVEWESNGQPENNYKTTPPVLDSDGSFFLYSKLTVDKSRWQQGNVFSCSVMHEALHNHYTQKSLSLSPGSGGGGSGGGGSGGGGSPSEVQLLESGGGLVQPGGSLRLSCAASGFTFSSYAMSWVRQAPGKCLEWVSAISGSGGSTYYADSVKGRFTISRDNSKNTLYLQMNSLRAEDTAVYYCARYYGGYYSAWMDYWGQGTLVTVSSGGGGSGGGGSGGGGSGGGGSDIQMTQSPSSLSASVGDRVTITCRASQSISSFLNWYQQKPGKAPKLLIYAASSLQSGVPSRFSGSGSGTDFTLTISSLQPEDSATYYCQQTYGYLHTFGCGTKLEIKR
notes: Optimized ADAPTIR scFv-Fc-scFv homodimer with stabilizing disulfide in the 1210 scFv; also called 5T4-CD137 bispecific antibody
In the case of B2, in assay [2], the EC50 is 10 nM.

B3: biotinylated ALG.APV-210 (bispecific antibody)
chain: EVQLLESGGGLVQPGGSLRLSCAASGFTFSHGSMYWVRQAPGKGLEWVSSISSGSGSTYYADSVKGRFTISHDNSKNTLYLQMNSLRAEDTAVYYCARSSYYGSYYSIDYWGQGTLVTVSSGGGGSGGGGSGGGGSGGGGSDIQMTQSPSSLSASVGDRVTITCRASQSISSYLNWYQQKPGKAPKLLIYAASSLQSGVPSRFSGSGSGTDFTLTISSLQPEDFATYYCQQYYDNLPTFGQGTKLEIKEPKSSDKTHTCPPCPAPEAAGAPSVFLFPPKPKDTLMISRTPEVTCVVVDVSHEDPEVKFNWYVDGVEVHNAKTKPREEQYNSTYRVVSVLTVLHQDWLNGKEYKCAVSNKALPAPIEKTISKAKGQPREPQVYTLPPSRDELTKNQVSLTCLVKGFYPSDIAVEWESNGQPENNYKTTPPVLDSDGSFFLYSKLTVDKSRWQQGNVFSCSVMHEALHNHYTQKSLSLSPGSGGGGSGGGGSGGGGSPSEVQLLESGGGLVQPGGSLRLSCAASGFTFSSYAMSWVRQAPGKCLEWVSAISGSGGSTYYADSVKGRFTISRDNSKNTLYLQMNSLRAEDTAVYYCARYYGGYYSAWMDYWGQGTLVTVSSGGGGSGGGGSGGGGSGGGGSDIQMTQSPSSLSASVGDRVTITCRASQSISSFLNWYQQKPGKAPKLLIYAASSLQSGVPSRFSGSGSGTDFTLTISSLQPEDSATYYCQQTYGYLHTFGCGTKLEIKR
notes: also called ALG.APV-210 (biotinylated for FACS detection)
For B3, the EC50 in assay [3] was 23 nM.
